# From patent US20210371537A1 (MERRIMACK PHARMACEUTICALS, published 2021)
# T1: human TNFR2 on GloResponse NF-kB-RE-luc2p HEK293 reporter cells (human, UniProt P20333 23-461)
# T1 sequence: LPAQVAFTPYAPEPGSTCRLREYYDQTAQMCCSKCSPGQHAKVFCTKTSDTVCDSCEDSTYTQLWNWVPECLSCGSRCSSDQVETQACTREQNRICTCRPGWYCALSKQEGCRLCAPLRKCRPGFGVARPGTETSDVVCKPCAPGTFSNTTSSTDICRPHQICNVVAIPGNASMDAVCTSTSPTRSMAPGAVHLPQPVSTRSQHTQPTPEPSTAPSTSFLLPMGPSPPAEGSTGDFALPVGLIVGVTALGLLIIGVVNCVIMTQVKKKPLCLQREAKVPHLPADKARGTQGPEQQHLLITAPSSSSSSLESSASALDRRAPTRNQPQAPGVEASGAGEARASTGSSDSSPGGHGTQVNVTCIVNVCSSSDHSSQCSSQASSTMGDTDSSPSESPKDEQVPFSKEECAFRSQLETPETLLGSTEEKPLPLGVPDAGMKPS
# T2: human TNFR2-His (human, UniProt P20333 23-257)
# T2 construct: not shown: His tag
# T2 sequence: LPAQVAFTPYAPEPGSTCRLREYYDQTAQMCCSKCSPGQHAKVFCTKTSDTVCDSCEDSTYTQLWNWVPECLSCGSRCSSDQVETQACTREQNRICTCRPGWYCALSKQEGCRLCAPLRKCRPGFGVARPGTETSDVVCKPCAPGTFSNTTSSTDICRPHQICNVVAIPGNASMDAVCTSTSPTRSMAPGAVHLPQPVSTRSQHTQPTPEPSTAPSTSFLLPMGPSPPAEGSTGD
# Tests used:
# [1] = target: his-tagged mouse TNFR2 (mouse) (UniProt P25119); test: blocking ELISA: His-tagged mouse TNFR2 coated, antibody titrated, then recombinant mouse TNF-alpha added and detected; OD450 normalized
# his-tagged mouse TNFR2 (mouse), sequence (P25119 23-258 limits assumed): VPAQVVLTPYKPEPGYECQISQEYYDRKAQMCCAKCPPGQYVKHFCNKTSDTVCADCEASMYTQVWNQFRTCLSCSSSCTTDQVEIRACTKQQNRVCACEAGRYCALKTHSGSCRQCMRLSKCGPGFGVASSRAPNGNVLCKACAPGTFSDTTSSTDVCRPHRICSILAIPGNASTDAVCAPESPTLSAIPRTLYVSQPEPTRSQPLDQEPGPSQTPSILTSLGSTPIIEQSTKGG
# [2] = target: T1, human TNFR2 on GloResponse …; test: cell-based or functional assay
# human TNFR2-His = target: T2, human TNFR2-His; test: BLI, antibody on anti-Human Fc Capture (AHC) biosensors, human TNFR2-His in solution
# Protocol: Binding affinities for human TNFR2 of the affinity-matured anti-human TNFR2 antibodies generated in Example 30 were measured by bio-layer interferometry (BLI). Briefly, a BLI kinetic assay was performed using anti-Human Fc Capture (AHC) biosensors (ForteBio) under the following conditions: (a) loading of antibody (4 μg/mL) for 60 sec, (b) baseline for 60 sec, (d) association with human TNFR2-His ([…]) for 300 sec, and (e) dissociation for 300 sec.
Molecule,IC50 (read off the curve) [1] [nM],EC50 in stimulating NF-kB activity [2] [µg/mL],Kd (human TNFR2-His) [nM],EC50 of induced NF-kB activity [2] [µg/mL]
"ABV2.7 (antibody, human IgG1, kappa, V domains shown) VH: QVQLVQSGSELKKPGASVKVSCKASGYTFTTFGMSWVRQAPGQGLEWMGWINTYSGVPTYAQGFTGRFVFSLDTSVSTAYLQISSLKAEDTAVYFCARRSNFAYWGQGTLVTVSS VL: DIVLTQSPDSLAVSLGERATINCRASESLTASGNSFMHWYQQKPGQPPKLLIYRASNLESGVPDRFSGSGSRTDFTLTISSLQAEDVAVYYCQQSRHVNWTFGGGTKVEIKR",–,10.8,0.3,–
"ABV2.13 (antibody, human IgG1, kappa, V domains shown) VH: QVQLVQSGSELKKPGASVKVSCKASGYTFTTFGMSWVRQAPGQGLEWMGWINTYSGVPHYAQGFTGRFVFSLDTSVSTAYLQISSLKAEDTAVYFCARRSNFAYWGQGTLVTVSS VL: DIVLTQSPDSLAVSLGERATINCRASQTVDSSGNSFMHWYQQKPGQPPKLLIYLGNRLESGVPDRFSGSGSRTDFTLTISSLQAEDVAVYYCQQSNEDPWTFGGGTKVEIKR",–,4.1,1.59,–
"ABV2.15 (antibody, human IgG1, kappa, V domains shown) VH: QVQLVQSGSELKKPGASVKVSCKASGYTFTTFGMSWVRQAPGQGLEWMGWINTYSGVPHYAQGFTGRFVFSLDTSVSTAYLQISSLKAEDTAVYFCARRSNFAYWGQGTLVTVSS VL: DIVLTQSPDSLAVSLGERATINCRASESLTASGNSFMHWYQQKPGQPPKLLIYRASNLESGVPDRFSGSGSRTDFTLTISSLQAEDVAVYYCQQSRHVNWTFGGGTKVEIKR",–,9.3,0.158,5.3

# Next, values leading:
IC50 (read off the curve) [1] [nM],EC50 in stimulating NF-kB activity [2] [µg/mL],Kd (human TNFR2-His) [nM],EC50 of induced NF-kB activity [2] [µg/mL],Molecule
2,–,–,–,54.7 (Bioxcell) (antibody)
–,–,4.42,1.6,"ABV2.1 (ABV2 hum #2 HD3) (antibody, V domains shown, humanized ABV2; also called parental antibody) VH: QVQLVQSGSELKKPGASVKVSCKASGYTFTTFGMSWVRQAPGQGLEWMGWINTYSGVPTYAQGFTGRFVFSLDTSVSTAYLQISSLKAEDTAVYFCARRSNFAYWGQGTLVTVSS VL: DIVLTQSPDSLAVSLGERATINCRASESVDSSGNSFMHWYQQKPGQPPKLLIYRASNLESGVPDRFSGSGSRTDFTLTISSLQAEDVAVYYCQQSNEDPWTFGGGTKVEIK"
–,8.6,0.689,–,"ABV2 chimera (ABV2c) (antibody, human IgG1, kappa, V domains shown, VH and VL of mouse ABV2 fused with human IgG1 and human kappa constant regions; also called ABVc; chimeric anti-human TNFR2 antibody) VH: QIQLVQSGPELKKPGETVKISCKASGYTFTTFGMSWVKQAPGKGLKWMGWINTYSGVPTYADDFKGRFAFSLETSASTAYLQINNLKNEDTATYFCARRSNFAYWGQGTLVTVSA VL: DIVLTQSPASLAVSLGQRATISCRASESVDSSGNSFMHWYQQKAGQSFKLLIYRASNLESGIPARFSGSGSRTDFTLTINPVEADDVATYYCQQSNEDPWTFGGGTKLEIKR"
